Assay results from the RNAGym collection of RNA variant scans (doi:10.1093/molbev/msab373).

B1: Azoarcus group I ribozyme (parent)
chain: GUGCCUUGCGCCGGGAAACCACGCAAGGGAUGGUGUCAAAUUCGGCGAAACCUAAGCGCCCGCCCGGGCGUAUGGCAACGCCGAGCCAAGCUUCGGCGCCUGCGCCGAUGAAGGUGUAGAGACUAGACGGCACCCACCUAAGGCAAACGCUAUGGUGAAGGCAUAGUCCAGGGAGUGGCGAAAGUCACACAAACCGG

Variants of: B1
Test: reverse-splicing fitness (ratio to wild type); higher = more active; in vitro selection; Mg2+ level not given
How it was run: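 An in vitro group I ribozyme library with randomized positions was T7-transcribed and gel-purified. In triplicate, 10 pmol RNA in EPPS pH 7.5 was reacted with 50 pmoles of a 30-nt RNA substrate for 1 h at 37 °C across several added MgCl2 levels (1–48 mM), then stopped with EDTA. Products were reverse transcribed from a substrate-complementary primer, PCR-amplified and sequenced (HiSeq 4000). Fitness is a variant's read proportion after selection over that before, normalised to wild type.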
C82U A120G A145U C150G C169G gave a reverse-splicing fitness of 0.00815.
C82U A120G A145U C150G C169A gave a reverse-splicing fitness of 0.00915.
C82U A120G A145U C150G C169U showed a reverse-splicing fitness of 0.00878.
For C82U A120G C150G C169U, the reverse-splicing fitness was 0.00921.
C82U A120G C150G C169G gave a reverse-splicing fitness of 0.0077.
In the case of C82U A120G C150G C169A, the reverse-splicing fitness is reported as 0.00923.
With C82U A120G A145C C169U U176A the reverse-splicing fitness was 0.0224.
For C82U A120G A145C C169U U176C, the reverse-splicing fitness was 0.0127.
C82U A120G A145C C169U U176G showed a reverse-splicing fitness of 0.00314.
Variant C82U A120G A145U C150U C169U U176C has a reverse-splicing fitness of 0.0154.
Variant C82U A120G A145U C150U C169U U176A has a reverse-splicing fitness of 0.022.
In the case of C82U A120G A145U C150U C169U U176G, the reverse-splicing fitness is reported as 0.00327.
Variant C82U A120G A145U C169U U176G has a reverse-splicing fitness of 0.00326.
C82U A120G A145U C169U U176A showed a reverse-splicing fitness of 0.0216.
C82U A120G A145U C169U U176C showed a reverse-splicing fitness of 0.0159.
In the case of C82U A120G A145G C169G U176C, the reverse-splicing fitness is reported as 0.0317.
With C82U A120G A145G C169G U176G the reverse-splicing fitness was 0.00333.
With C82U A120G A145G C169G U176A the reverse-splicing fitness was 0.0223.
Variant C82U A120G A145G C150G U176A has a reverse-splicing fitness of 0.00607.
For C82U A120G A145G C150G U176G, the reverse-splicing fitness was 0.00539.
Variant C82U A120G A145G C150G U176C has a reverse-splicing fitness of 0.00995.
With C82U A120G A145G C150G C169A U176A the reverse-splicing fitness was 0.0129.
Work on C82U A120G A145G C150G C169A U176G yielded a reverse-splicing fitness of 0.00685.
C82U A120G A145G C150G C169A U176C showed a reverse-splicing fitness of 0.0121.
In the case of C82U A120G A145G C169A, the reverse-splicing fitness is reported as 0.018.
C82U A120G A145G C169U gave a reverse-splicing fitness of 0.0197.
Work on C82U A120G A145G C169G yielded a reverse-splicing fitness of 0.0254.
Variant C82U A120G C150A C169U U176A has a reverse-splicing fitness of 0.0211.
For C82U A120G C150A C169U U176C, the reverse-splicing fitness was 0.0174.
Variant C82U A120G C150A C169U U176G has a reverse-splicing fitness of 0.00606.
Work on C82U A120G A145G U176G yielded a reverse-splicing fitness of 0.00485.
With C82U A120G A145G U176C the reverse-splicing fitness was 0.019.
For C82U A120G A145G U176A, the reverse-splicing fitness was 0.0128.
C82U A120G A145G C150A C169U U176C gave a reverse-splicing fitness of 0.0166.
C82U A120G A145G C150A C169U U176G showed a reverse-splicing fitness of 0.0051.
For C82U A120G A145G C150A C169U U176A, the reverse-splicing fitness was 0.0217.
In the case of C82U A120G A145U C150U C169G U176C, the reverse-splicing fitness is reported as 0.0139.
Variant C82U A120G A145U C150U C169G U176G has a reverse-splicing fitness of 0.00343.
Variant C82U A120G A145U C150U C169G U176A has a reverse-splicing fitness of 0.0116.
C82U A120G A145G C150U U176A showed a reverse-splicing fitness of 0.00967.
Work on C82U A120G A145G C150U U176C yielded a reverse-splicing fitness of 0.019.
C82U A120G A145G C150U U176G gave a reverse-splicing fitness of 0.00573.
C82U A120G A145U C150A C169A U176A showed a reverse-splicing fitness of 0.0112.
Work on C82U A120G A145U C150A C169A U176C yielded a reverse-splicing fitness of 0.00898.
For C82U A120G A145U C150A C169A U176G, the reverse-splicing fitness was 0.00335.
In the case of C82U A120G A145U C150A U176G, the reverse-splicing fitness is reported as 0.00337.
With C82U A120G A145U C150A U176C the reverse-splicing fitness was 0.0109.
In the case of C82U A120G A145U C150A U176A, the reverse-splicing fitness is reported as 0.00948.
C82U A120G A145U C150G showed a reverse-splicing fitness of 0.00697.
C82U A120G A145U C150U gave a reverse-splicing fitness of 0.0176.
C82U A120G A145U C150A gave a reverse-splicing fitness of 0.00772.
Variant C82U A120G A145G C150A C169A has a reverse-splicing fitness of 0.0113.
C82U A120G A145G C150A C169G showed a reverse-splicing fitness of 0.0101.
Work on C82U A120G A145G C150A C169U yielded a reverse-splicing fitness of 0.0101.
C82U A120G A145U C150U U176A gave a reverse-splicing fitness of 0.0102.
With C82U A120G A145U C150U U176C the reverse-splicing fitness was 0.0143.
For C82U A120G A145U C150U U176G, the reverse-splicing fitness was 0.00369.
C82U A120G C150G C169G U176A showed a reverse-splicing fitness of 0.00641.
Variant C82U A120G C150G C169G U176G has a reverse-splicing fitness of 0.00357.
Variant C82U A120G C150G C169G U176C has a reverse-splicing fitness of 0.0046.
Work on C82U A120G A145U C150A C169G U176G yielded a reverse-splicing fitness of 0.0037.
With C82U A120G A145U C150A C169G U176C the reverse-splicing fitness was 0.0133.
In the case of C82U A120G A145U C150A C169G U176A, the reverse-splicing fitness is reported as 0.0114.
With C82U A120G C150A C169A U176A the reverse-splicing fitness was 0.0174.
Work on C82U A120G C150A C169A U176G yielded a reverse-splicing fitness of 0.00477.
For C82U A120G C150A C169A U176C, the reverse-splicing fitness was 0.0164.
With C82U A120G A145U C150A C169U U176A the reverse-splicing fitness was 0.022.
In the case of C82U A120G A145U C150A C169U U176C, the reverse-splicing fitness is reported as 0.014.
Work on C82U A120G A145U C150A C169U U176G yielded a reverse-splicing fitness of 0.00395.
For C82U A120G C150A C169G U176C, the reverse-splicing fitness was 0.0214.
Work on C82U A120G C150A C169G U176A yielded a reverse-splicing fitness of 0.018.
With C82U A120G C150A C169G U176G the reverse-splicing fitness was 0.00456.
C82U A120G A145U U176G gave a reverse-splicing fitness of 0.00403.
Variant C82U A120G A145U U176C has a reverse-splicing fitness of 0.0139.
Variant C82U A120G A145U U176A has a reverse-splicing fitness of 0.0127.
Variant C82U A120G A145U C150G U176A has a reverse-splicing fitness of 0.00575.
Work on C82U A120G A145U C150G U176C yielded a reverse-splicing fitness of 0.00808.
With C82U A120G A145U C150G U176G the reverse-splicing fitness was 0.00275.
In the case of C82U A120G A145G C169A U176G, the reverse-splicing fitness is reported as 0.00333.
With C82U A120G A145G C169A U176A the reverse-splicing fitness was 0.0221.
In the case of C82U A120G A145G C169A U176C, the reverse-splicing fitness is reported as 0.0335.
With C82U A120G A145U C150G C169G U176C the reverse-splicing fitness was 0.00534.
Variant C82U A120G A145U C150G C169G U176G has a reverse-splicing fitness of 0.00361.
